The source of these data is paper PMC10849712 (bioRxiv, 2024).

Assay [1] has as its target native HB3VAR03 PfEMP1 (CIDRα1.4) on P. falciparum-infected erythrocytes (Plasmodium falciparum HB3 (HB3VAR03), UniProt A0A0L7KL67, strain). Put plainly: flow cytometry on cells.
The target in assay [2] is native IT4VAR18 PfEMP1 (CIDRα1.6) on P. falciparum-infected erythrocytes (Plasmodium falciparum, clone IT4 …, UniProt A3R6S2, strain). Put plainly: flow cytometry on cells.
Assay [3] addresses native IT4VAR19 PfEMP1 (CIDRα1.1) on P. falciparum-infected erythrocytes (Plasmodium falciparum, clone IT4 …, UniProt A3R6S3, strain). The assay is described as follows: flow cytometry on cells.
Assay [4] deals with T1, three-domain protein of IT4VAR22 PfEMP1 (NTSA-DBLα-CIDRα1.7-DBLβ) (Plasmodium falciparum IT4 (IT4VAR22), strain).
T1 chain: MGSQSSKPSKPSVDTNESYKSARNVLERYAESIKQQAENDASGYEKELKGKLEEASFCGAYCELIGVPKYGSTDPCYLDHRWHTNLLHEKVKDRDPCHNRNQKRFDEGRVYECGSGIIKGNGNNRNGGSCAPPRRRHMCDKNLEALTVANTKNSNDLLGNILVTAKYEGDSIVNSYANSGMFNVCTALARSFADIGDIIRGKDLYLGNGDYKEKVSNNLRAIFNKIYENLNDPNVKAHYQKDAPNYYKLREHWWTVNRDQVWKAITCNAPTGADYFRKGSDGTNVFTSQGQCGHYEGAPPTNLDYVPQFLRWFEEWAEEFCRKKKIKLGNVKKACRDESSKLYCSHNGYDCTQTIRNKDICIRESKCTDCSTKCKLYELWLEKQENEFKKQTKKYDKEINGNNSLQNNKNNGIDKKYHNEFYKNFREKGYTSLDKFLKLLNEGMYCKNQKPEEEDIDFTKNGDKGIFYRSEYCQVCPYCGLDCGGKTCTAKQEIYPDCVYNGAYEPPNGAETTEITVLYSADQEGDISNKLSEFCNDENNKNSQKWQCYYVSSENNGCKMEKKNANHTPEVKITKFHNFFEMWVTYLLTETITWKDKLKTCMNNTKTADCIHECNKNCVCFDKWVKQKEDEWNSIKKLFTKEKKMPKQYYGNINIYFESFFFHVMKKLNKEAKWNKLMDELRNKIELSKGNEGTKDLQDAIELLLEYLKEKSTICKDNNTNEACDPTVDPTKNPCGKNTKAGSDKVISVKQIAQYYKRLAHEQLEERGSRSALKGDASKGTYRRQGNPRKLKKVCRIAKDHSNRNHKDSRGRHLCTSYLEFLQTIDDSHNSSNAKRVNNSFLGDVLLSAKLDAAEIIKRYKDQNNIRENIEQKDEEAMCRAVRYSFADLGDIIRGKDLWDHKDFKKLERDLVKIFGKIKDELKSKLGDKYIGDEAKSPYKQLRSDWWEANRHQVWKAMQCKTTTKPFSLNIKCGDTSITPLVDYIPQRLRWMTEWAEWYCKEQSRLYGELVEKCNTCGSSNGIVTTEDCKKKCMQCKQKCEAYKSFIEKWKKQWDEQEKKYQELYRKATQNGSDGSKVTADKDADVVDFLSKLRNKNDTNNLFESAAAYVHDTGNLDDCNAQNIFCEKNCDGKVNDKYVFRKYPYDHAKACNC
Put plainly: cryo-EM structure.

The target in assay [5] is T2, three-domain protein of HB3VAR03 PfEMP1 (NTS-DBLα-CIDRα1.4-DBLβ) (Plasmodium falciparum HB3 (HB3VAR03), strain).
T2 chain: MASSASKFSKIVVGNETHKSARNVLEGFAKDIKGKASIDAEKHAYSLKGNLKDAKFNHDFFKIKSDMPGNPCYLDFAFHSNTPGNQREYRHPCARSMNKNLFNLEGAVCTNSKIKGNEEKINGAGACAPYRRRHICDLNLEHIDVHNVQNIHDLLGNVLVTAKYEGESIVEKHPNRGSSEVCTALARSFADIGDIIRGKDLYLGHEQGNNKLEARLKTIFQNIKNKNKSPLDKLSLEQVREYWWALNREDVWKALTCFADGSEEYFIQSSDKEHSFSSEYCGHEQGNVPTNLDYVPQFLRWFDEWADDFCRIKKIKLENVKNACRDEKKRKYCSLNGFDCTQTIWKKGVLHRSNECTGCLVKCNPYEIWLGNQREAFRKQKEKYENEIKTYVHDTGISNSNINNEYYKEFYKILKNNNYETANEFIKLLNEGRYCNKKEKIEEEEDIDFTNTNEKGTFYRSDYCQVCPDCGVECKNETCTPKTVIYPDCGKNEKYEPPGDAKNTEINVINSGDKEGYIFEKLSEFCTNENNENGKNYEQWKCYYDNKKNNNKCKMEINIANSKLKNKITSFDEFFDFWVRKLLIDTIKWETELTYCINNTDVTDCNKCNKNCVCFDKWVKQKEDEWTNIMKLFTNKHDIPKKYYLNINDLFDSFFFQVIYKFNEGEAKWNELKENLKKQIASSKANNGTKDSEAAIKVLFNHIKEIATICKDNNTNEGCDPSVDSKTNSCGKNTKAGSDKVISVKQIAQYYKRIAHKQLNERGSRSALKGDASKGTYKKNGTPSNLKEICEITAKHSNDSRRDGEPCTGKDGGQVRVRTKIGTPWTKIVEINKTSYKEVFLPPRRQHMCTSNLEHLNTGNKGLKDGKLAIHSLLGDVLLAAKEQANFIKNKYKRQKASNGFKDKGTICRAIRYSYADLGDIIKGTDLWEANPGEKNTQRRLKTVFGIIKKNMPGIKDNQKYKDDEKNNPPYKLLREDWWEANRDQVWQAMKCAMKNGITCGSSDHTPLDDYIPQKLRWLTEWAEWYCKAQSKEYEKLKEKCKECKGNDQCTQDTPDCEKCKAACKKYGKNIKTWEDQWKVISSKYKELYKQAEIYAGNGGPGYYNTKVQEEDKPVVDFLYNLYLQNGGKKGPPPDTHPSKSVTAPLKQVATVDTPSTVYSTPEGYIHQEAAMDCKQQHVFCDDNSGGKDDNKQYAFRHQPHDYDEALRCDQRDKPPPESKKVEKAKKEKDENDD
The assay is described as follows: cryo-EM structure.

In assay [6] the target is T3, single CIDRα1.4 domain of HB3VAR03 PfEMP1 (crystallised with C7 Fab) (Plasmodium falciparum HB3 (HB3VAR03), strain).
T3 chain: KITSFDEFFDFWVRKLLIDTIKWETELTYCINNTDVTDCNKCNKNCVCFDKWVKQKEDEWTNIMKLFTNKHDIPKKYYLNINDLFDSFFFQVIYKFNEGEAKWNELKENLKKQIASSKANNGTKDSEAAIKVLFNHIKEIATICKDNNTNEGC
Put plainly: crystal structure.

B1: mAb C74, recombinant IgG1 (antibody, V domains shown)
VH: EVQLVQSGGALVRPGGSLRLSCAASGFDFSDFEMNWVRQAPGKGLEWISYISKISAASFYADSVEGRFTISRDNTKNLLWLEMTSLRDEDTAVYYCARDLPGYLERVFDLWGQGTLVSVSS
VL: EIVLTQSPATLSLSPGEDATLSCRASQSVGSALAWYQHRPGQSPRLLIYDASTRATGIPARFSGSGSGTEFTLTVSSLTSEDFAVYYCQEYKNSVPPTWTFGQGTKVEIK
Regarding B1, the results for the binding result in assay [1], in assay [2] and in assay [3] were “binds”, “binds” and “no binding (tested: 100 μg/mL)”, respectively.

B2: C74 Fab (Fab, V domains shown)
VH: B1 VH
VL: B1 VL
On to B2, for which the binding result in assay [4] was “binds”.

B3: mAb C7, recombinant IgG1 (antibody, V domains shown)
VH: EVQLVESGGGLAQPGGSLRLSCAASGFTFRDHGMTWVRQVSGKGLEWLSYITAGSKMSYYSDSVRGRFTISRDNAKNSLYLQMNGLTDEDSAIYYCVKGGGNCPSDTCYPSGYFGLDVWGQGTTVTVSS
VL: QSELTQPPSMSVSPGQTAMITCSMNKYSYISWYQQRPGQSPALVIYQDTRRPSGIPERFSGSNSENTAILTITGTRDLDEADYFCQGWDSNVKAVLFGGGTKLTVL
Take B3: the binding result is “binds” in assay [1], “binds” in assay [2] and “no binding (tested: 100 μg/mL)” in assay [3].

B4: C7 Fab (Fab, V domains shown)
VH: B3 VH
VL: B3 VL
Turning to B4, the binding result in assay [5], in assay [4] and in assay [6] was “binds” in each case.
